Values quoted from earlier work in paper PMC4380812.

Target: HdeA (Escherichia coli) (UniProt P0AES9)

Chain of HdeA (P0AES9 22-110): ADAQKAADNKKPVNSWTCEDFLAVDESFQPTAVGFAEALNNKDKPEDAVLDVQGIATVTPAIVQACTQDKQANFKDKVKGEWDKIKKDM

## HdeA (from UniProt P0AES9)
  Kd: 1000 nM
